Columns and labels:
[1] = target: T1, human Siglec-8 (full-length, on transfected CHO or 293 cells, or native on human eosinophils) (human, UniProt Q9NYZ4 17-499); experiment: cell-based or functional assay
[2] = target: T1, human Siglec-8 (full-length, on …); experiment: flow cytometry on CHO cells transfected with human Siglec-8; labelled anti-human Fc-gamma secondary; Median RL1-H
Experimental: In additional studies, the parental llama G2 sequence was humanized and multivalent hzSiglec8-G2v14-Fc antibodies were cloned with a reduced effector function xELL human Fe. Binding of bivalent (ex11422; SEQ ID NO: 5 linked to an Fe xELL via linker 2), tetravalent (cx11580; SEQ ID NO: 9 linked to an Fe xELL via linker 2), and hexavalent (cx11579; SEQ ID NO: 10 linked to an Fe xELL via linker 2) hzSiglec8-G2v14-Fc antibodies were assessed by flow cytometry using CHO cells transfected with human Siglec-8. A titration series of the fusion proteins were incubated with the Siglec8-expressing CHO cells (5×10⁴ cells/well) for 30 minutes at 4° C. in FACS Buffer (PBS 1% BSA, 0.1% NaN3 pH 7.4) in 96 well plates. Following one 150 μL wash with FACS buffer, an APC-conjugated anti-human Fcγ specific secondary antibody (Jackson ImmunoResearch) was added, and cells were incubated for 30 minutes at 4° C. Following one additional wash in FACS buffer, bound antibodies were detected via flow cytometry (iQue Intellicyte).
The calculated affinity was similar between the bivalent, tetravalent, and hexavalent hzSiglec8-G2v14-Fc antibodies. The observed Bmax was reduced with increasing valency as anticipated, due the fact that the Fc portion of the antibody was detected in this assay and the ratio of Fc regions to anti-Siglec-8 binding domains is inverse to valency.

T1 sequence (Q9NYZ4 17-499): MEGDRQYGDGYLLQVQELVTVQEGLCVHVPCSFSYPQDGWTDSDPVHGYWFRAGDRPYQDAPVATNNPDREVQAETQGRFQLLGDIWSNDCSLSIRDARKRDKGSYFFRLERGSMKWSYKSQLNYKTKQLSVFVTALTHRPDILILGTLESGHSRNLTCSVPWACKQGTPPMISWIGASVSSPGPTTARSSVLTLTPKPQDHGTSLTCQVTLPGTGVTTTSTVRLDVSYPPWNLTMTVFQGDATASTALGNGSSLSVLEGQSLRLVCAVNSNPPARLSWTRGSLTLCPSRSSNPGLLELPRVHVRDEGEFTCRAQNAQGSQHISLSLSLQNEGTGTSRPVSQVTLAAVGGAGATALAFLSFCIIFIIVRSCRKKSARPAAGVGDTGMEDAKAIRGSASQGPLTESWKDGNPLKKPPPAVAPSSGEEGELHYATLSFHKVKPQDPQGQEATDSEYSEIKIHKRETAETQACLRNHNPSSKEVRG

B1: tetravalent hzSiglec8-G2v14-Fc (xELL) (Fc fusion)
chain: EVQLLESGGGEVQPGGSLRLSCAASGSISIFSMYVVAWYRQAPGKEREWVAFIQRGGTANYAESAKGRFTISRDNAKNTVYLQMSSLRAEDTAVYYCNYINTDNEIGGPWGQGTLVTVKPGGSGGSEVQLLESGGGEVQPGGSLRLSCAASGSISIFSMYVVAWYRQAPGKEREWVAFIQRGGTANYAESAKGRFTISRDNAKNTVYLQMSSLRAEDTAVYYCNYINTDNEIGGPWGQGTLVTVKPGGGGDKTHTCPPCPAPGGPSVFLFPPKPKDTLMISRTPEVTCVVVDVSHEDPEVKFNWYVDGVEVHNAKTKPREEQYNSTYRVVSVLTVLHQDWLNGKEYKCKVSNKALPAPIEKTISKAKGQPREPQVYTLPPSRDELTKNQVSLTCLVKGFYPSDIAVEWESNGQPENNYKTTPPVLDSDGSFFLYSKLTVDKSRWQQGNVFSCSVMHEALHNHYTQKSLSLSPGK
notes: Homodimer through the Fc; also called cx11580
potency of eosinophil killing in the presence of IL-5, fold improvement over the afucosylated AK002 analog [1]: ~30 fold | potency of eosinophil killing in the presence of IL-5, fold increase compared to bivalent hzSiglec8-G2v14-Fc [1]: 10 fold | EC50 (read off the curve) [2]: ~40 pM

Source: patent publication US20250042997A1 (PHYLAXIS BIOSCIENCE, published 2025)
